From patent US20250197488A1 (MABWELL SHANGHAI BIOSCIENCE, published 2025)
Substitutions are numbered along the chain they refer to.

T1: IL-11 (Cat. 12225-HNCE, Sino Biological Inc.) (UniProt P20809 22-199, limits assumed)
T1 sequence (looked up): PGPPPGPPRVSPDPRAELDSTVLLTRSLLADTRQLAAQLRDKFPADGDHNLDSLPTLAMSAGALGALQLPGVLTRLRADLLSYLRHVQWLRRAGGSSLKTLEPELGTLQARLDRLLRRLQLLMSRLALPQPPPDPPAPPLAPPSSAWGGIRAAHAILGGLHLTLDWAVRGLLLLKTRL

T2: human IL-11 (AAH12506.1, Pro22-Leu199) (human, UniProt P20809 22-199)
T2 construct: The range Pro22-Leu199 counts on AAH12506.1; The Octet runs say only 'human IL-11'; also called hIL-11
T2 chain: T1 sequence (looked up) with H154L

B1: hz8C8-VHm1 + hz8C8-VLm8 (antibody, human IgG1, kappa, V domains shown)
VH: EVQLVESGGGLVQPGGSLRLSCAASGFTFSSFGMHWVRQAPGKGLEWVAYITPGSNTIYYADTVKGRFTISRDNAKNSLYLQMNSLRAEDTAVYYCAREYYSYDEGFAYWGQGTLVTVSS
VL: EIVLTQSPATLSLSPGERATLSCSVSDLIPSQYLSWYQQKPGQAPRLLIYRTSNLASGIPARFSGSGSGTDFTLTISSLEPEDFAVYYCQQGVDVPFTFGQGTKLEIKR
notes: human IgG1 constant regions
B2: hz8C8-VHm1-m5 + hz8C8-VLm7-m2 (antibody, human IgG1, kappa, V domains shown)
VH: B1 VH with W47Y
VL: B1 VL with S35H, R51D, T52A
notes: human IgG1 constant regions
B3: hz8C8-VHm1-m7 + hz8C8-VLm7-m2 (antibody, human IgG1, kappa, V domains shown)
VH: B1 VH with A49S, Y50V
VL: B1 VL with S35H, R51D, T52A
notes: human IgG1 constant regions
B4: hz8C8-VHm1-m3 + hz8C8-VLm7-m3 (antibody, human IgG1, kappa, V domains shown)
VH: B1 VH with Y101S
VL: B1 VL with S35H, R51G, T52A
notes: human IgG1 constant regions
B5: hz8C8-VHm1-m1 + hz8C8-VLm7 (antibody, human IgG1, kappa, V domains shown)
VH: B1 VH with F32Y
VL: B1 VL with S35H
notes: human IgG1 constant regions
B6: hz8C8-VHm1-m2 + hz8C8-VLm7 (antibody, human IgG1, kappa, V domains shown)
VH: B1 VH with Y50S
VL: B1 VL with S35H
notes: human IgG1 constant regions
B7: hz8C8-VHm3 + hz8C8-VL (antibody, human IgG1, kappa, V domains shown)
VH: B1 VH with I58T
VL: B1 VL with D27S, L28S, P30S, Q32N, S35H
notes: human IgG1 constant regions
B8: hz8C8-VHm1-m13 + hz8C8-VLm7-m2 (antibody, human IgG1, kappa, V domains shown)
VH: B1 VH with Y109S
VL: B1 VL with S35H, R51D, T52A
notes: human IgG1 constant regions
B9: hz8C8-VHm1-m11 + hz8C8-VLm7-m2 (antibody, human IgG1, kappa, V domains shown)
VH: B1 VH with F107P
VL: B1 VL with S35H, R51D, T52A
notes: human IgG1 constant regions
B10: hz8C8-VHm1 + hz8C8-VLm9 (antibody, human IgG1, kappa, V domains shown)
VH: B1 VH
VL: B1 VL with S35A
notes: human IgG1 constant regions
B11: hz8C8-VHm1-m8 + hz8C8-VLm7-m2 (antibody, human IgG1, kappa, V domains shown)
VH: B1 VH with V48I, A49G
VL: B1 VL with S35H, R51D, T52A
notes: human IgG1 constant regions
B12: hz8C8-VHm1-m3 + hz8C8-VLm7-m1 (antibody, human IgG1, kappa, V domains shown)
VH: B1 VH with Y101S
VL: B1 VL with S35H, T52A
notes: human IgG1 constant regions
B13: hz8C8-VHm1-m4 + hz8C8-VLm7-m2 (antibody, human IgG1, kappa, V domains shown)
VH: B1 VH with A49S
VL: B1 VL with S35H, R51D, T52A
notes: human IgG1 constant regions
B14: hz8C8-VHm1-m9 + hz8C8-VLm7-m2 (antibody, human IgG1, kappa, V domains shown)
VH: B1 VH with V48M, A49G
VL: B1 VL with S35H, R51D, T52A
notes: human IgG1 constant regions
B15: hz8C8-VHm2 + hz8C8-VL (antibody, human IgG1, kappa, V domains shown)
VH: B1 VH with P53A
VL: B1 VL with D27S, L28S, P30S, Q32N, S35H
notes: human IgG1 constant regions
B16: hz8C8-VHm1-m12 + hz8C8-VLm7-m2 (antibody, human IgG1, kappa, V domains shown)
VH: B1 VH with F107G
VL: B1 VL with S35H, R51D, T52A
notes: human IgG1 constant regions
B17: hz8C8-VHm1-m3 + hz8C8-VLm7-m2 (antibody, human IgG1, kappa, V domains shown)
VH: B1 VH with Y101S
VL: B1 VL with S35H, R51D, T52A
notes: human IgG1 constant regions
B18: hz8C8-VHm1-m6 + hz8C8-VLm7-m2 (antibody, human IgG1, kappa, V domains shown)
VH: B1 VH with Y50V
VL: B1 VL with S35H, R51D, T52A
notes: human IgG1 constant regions
B19: hz8C8-VHm1-m10 + hz8C8-VLm7-m2 (antibody, human IgG1, kappa, V domains shown)
VH: B1 VH with Y103S
VL: B1 VL with S35H, R51D, T52A
notes: human IgG1 constant regions
B20: hz8C8-VHm1-m3 + hz8C8-VLm7 (antibody, human IgG1, kappa, V domains shown)
VH: B1 VH with Y101S
VL: B1 VL with S35H
notes: human IgG1 constant regions
B21: hz8C8-VHm1-m3 + hz8C8-VLm7-m4 (antibody, human IgG1, kappa, V domains shown)
VH: B1 VH with Y101S
VL: B1 VL with S35H, L55R
notes: human IgG1 constant regions

Molecular target: T1, IL-11 (Cat. 12225-HNCE, Sino Biological …)
Test: competition ELISA, IL-11/IL-11Rα/GP130 complex
Description: The activity of the recombinant murine anti-IL-11 antibodies for blocking the formation of IL-11/IL-11Rα/GP130 complex was analyzed via competition ELISA. IL-11Rα-His (NP_004503.1, Met1-Val363, C-terminus-6-His Tag) was firstly added into ELISA plates to be coated overnight. Next day, samples were prepared as follows. […] After co-incubating and washing, an HRP conjugated anti-human Fc secondary antibody was added to develop the color which was then detected.
(§1) Then, light and heavy chain expression vectors for preparing mutant antibodies were constructed according to the method for preparing the recombinant antibodies provided in Example 4, using the mutant sequences shown in Table 3 which accordingly were linked with human IgG1 constant regions (SEQ ID NO. 13, and SEQ ID NO.14). Subsequently, the light chain and the heavy chain were reasonably matched and co-transfected into eukaryotic cells for transient expression, and then recombination protein samples of the mutant antibodies were obtained through affinity purification. The samples obtained were tested for affinity on Fortebio Octet, according to the method for measuring affinity provided in Example 1. Further, using the protocol provided in Example 3, hz8C8 and its affinity matured mutants were analyzed for their activity for blocking the formation of IL-11/IL-11Rα/GP130 complex.

IC50 [µg/mL] | Binder
0.7 | B1
0.52 | B2
2.14 | B3
0.78 | B4
0.75 | B5
1.68 | B6
0.828 | B7
0.54 | B8
1.7 | B9
0.72 | B10
0.57 | B11
0.55 | B12
0.79 | B13
0.77 | B14
0.694 | B15
1.54 | B16
0.67 | B17
1.71 | B18
1.57 | B19
0.83 | B20
0.47 | B21

Molecular target: T1, IL-11 (Cat. 12225-HNCE, Sino Biological …)
Test: cell-based or functional assay

Blocking activity (IC50), STAT3-luc reporter [µg/mL] | Binder
0.01 | B1
0.194 | B2
0.027 | B3
0.022 | B4
0.046 | B5
0.052 | B6
0.946 | B7
0.008 | B8
0.01 | B9
0.012 | B10
0.003 | B11
0.01 | B12
0.004 | B13
0.002 | B14
0.51 | B15
0.012 | B16
0.009 | B17
0.034 | B18
0.008 | B19
0.053 | B20
0.02 | B21

Molecular target: T2, human IL-11 (AAH12506.1, Pro22-Leu199)
Test: BLI (Octet), antibody captured, human IL-11 in solution
Description: The affinity of the murine antibodies purified from the hybridoma supernatants was determined using an Octet QKe System instrument from Fortebio Inc. with an anti-mouse IgG Fc Capture biosensor to capture the Fc fragments of the antibodies, for which an anti-IL-11 antibody named “3C6-mFc” recombinantly expressed was used at the same concentration as a positive control. Specifically, a hybridoma supernatant was diluted with HBS-EP+ buffer (GE), and was allowed to pass through the surface of AMC probes (Cat: 18-5088, PALL), and so the antibody in the hybridoma supernatant was captured on the surface of the probes; then, human IL-11 diluted in the HBS-EP+ buffer (300 nM) was used as a mobile phase to react with the antibody captured on the surface of the probes. Both the binding and the dissociating were conducted for 300 seconds. When the experiment was finished, data from which response values of blank controls had been deducted was fitted using a 1:1 Langmuir binding model by software, and then kinetic constants for antigen-antibody binding were calculated. Binding signals were detected on the Octet QKe System instrument with Hy5C2, Hy8C8, Hy16B5, Hy18A10, and Hy18H10.
The affinity of hz18A10 and hz8C8 was determined according to the method provided in Example 1 using AHC bioprobes for capturing human Fc fragment instead, with other conditions unchanged. A recombinantly expressed anti-IL-11 antibody 3C6-hFc was used at the same concentration as a positive control.
as §1, with “1.” for “1. Further, using the protocol provided in Example 3, hz8C8 and its affinity matured mutants were analyzed for their activity for blocking the formation of IL-11/IL-11Rα/GP130 complex.”

Kd [nM] | koff [s⁻¹] | kon [M⁻¹ s⁻¹] | Binder
0.0313 | 2.97e-05 | 948000 | B1
0.0594 | 4.05e-05 | 683000 | B2
1.87 | 0.00111 | 595000 | B3
< 0.001 | < 1e-07 | 972000 | B4
0.125 | 0.00013 | 1.04e+06 | B5
3.41 | 0.00355 | 1.04e+06 | B6
4.77 | 0.00216 | 453000 | B7
0.0573 | 4.32e-05 | 753000 | B8
1.3 | 0.001 | 771000 | B9
0.0354 | 3.45e-05 | 975000 | B10
< 0.001 | < 1e-07 | 847000 | B11
0.0609 | 5.81e-05 | 954000 | B12
< 0.001 | < 1e-07 | 879000 | B13
0.0239 | 2.14e-05 | 897000 | B14
0.727 | 0.000586 | 806000 | B15
7.95 | 0.00139 | 175000 | B16
< 0.001 | < 1e-07 | 945000 | B17
2.07 | 0.00135 | 653000 | B18
1.39 | 0.000305 | 219000 | B19
0.0987 | 0.00011 | 1.12e+06 | B20
< 0.001 | < 1e-07 | 901000 | B21
